# B1: PcUP2 (Phytophthora capsici) (protein)
# chain: MAPNMDAVADATAQVHVRNSHILEMHSDVLFHIGLTCSQEERQQVANTFGDVKFFITGGSAERMTHFAQSVAKELGITTPYGYQLAPIGSTSRYTLFKVGPVLVANHGIGMPSISILLHEVTKLLEYAGAHGATYIRMGTSGGIGVEPGTVVITSEGVNNKLESVDEVAVLGSTVRRPSICSPEVREEIITAAKEVGLPYAVGKTLSCNDFYEGQGRLDGAICEYTLEDKMAFLQKLADAGVRNIEMEARLMAGFCHKLNIPVAVVCVTLLNRLNGDQVLSSHETLQDFERRPGAVLLHYIKSKVNASA
# B2: PcUP1 (Phytophthora capsici) (protein)
# chain: MAYQNTNAMPTHSDGTVLHLGLRAGQVANRIVSVGSLGRAKVLAQLLDEGHFETFESARGFTTYSGKVKGVPVSIVATGMGVPNMDFVVRETRAVVNGPMTIIRFGTCGAVREEVPPGSVVVNGKGSIMVTRNPDAFFPGASEEDCYRVSRVMPSSSTLSKALVASMEDKLTALRAEPVIAASSDCDALRVFDGLNATACSFYSSQGRLDSNFDDRNEKLVEDLTTAHPDLYTVEMETFHLLDLAQRSRGSIQATAAVLVVANRLSGQIVESEVLEALESFWGGVVLQTIVSTPLD
# notes: homodimer, active site at the dimer interface (His19 and Arg59 from the neighbouring monomer)
# Columns and labels:
# [1] = biological target: T1, PcUP1 (Phytophthora capsici, UniProt A0A410UCT3); assay: X-ray crystal structure, […] Å; assay type: binding; conditions: with 2'-deoxyuridine (also with thymidine, 6K8P); phosphate site; crystals grown in phosphate
# T1 construct: gene up; homodimer, active site at the dimer interface (His19 and Arg59 from the neighbouring monomer)
# T1 sequence (A0A410UCT3 1-296): B2 chain
# [2] = substrate: O=c1ccn([C@@H]2O[C@H](CO)[C@@H](O)[C@H]2O)c(=O)[nH]1; assay: HPLC of uracil formed, Michaelis-Menten fit; assay type: biochemical, Phytophthora capsici; conditions: phosphorolysis, uridine 0.25-5 mM, 10 mM Na2HPO4, pH 7.5, 25 °C, kcat assumes Et = 2
Molecule,"X-ray crystal structure, 2.1 Å [1]",Km [2],kcat [2]
O=P(O)(O)O [phosphate],"Arg59 is an important residue in the phosphate-bonding pocket, forming two hydrogen bonds",–,–
B1,–,7.55 ± 0.6 mM,1188 ± 90 s⁻¹
B2,–,6.96 ± 1.52 mM,982 ± 152 s⁻¹

# Reference: PMC7271239, “Structural and catalytic analysis of two diverse uridine phosphorylases in Phytophthora capsici” (Scientific Reports, 2020)
